Assays:
Gardnerella vaginalis = assay: G. vaginalis growth in liquid culture, viability as CFU
Protocol: G. vag isolates were recovered from the vaginal discharge of BV positive patients and identification at the species level was performed by species-specific PCR using the primer pairs G. vaginalis V2-R1 and G. vaginalis V6-U2.
Cells were grown in aerobic conditions at 37° C. at 5% CO2 in PMD medium. PMD medium contains: proteose peptone No. 3 (BD211693) 15 g/L, maltone 2 g/L, dextrose 1 g/L, Na2HPO2 1 g/L, NaH2PO4 1 g/L adjusted to pH6.8. High Iron PMD medium additional contains 500 mg/L human hemoglobin. No Iron PMD is prepare by treating PMD medium with Chelex® 100 Chelating Resin (Bio-Rad Cat #1432832) then adding back 0.1 mM magnesium sulfate, 0.1 mM calcium chloride, and 10 μM zinc chloride. Low Iron PMD medium is prepared by adding 10 μM ferric ammonium citrate (FAC) to No Iron PMD. Overnight broth cultures of G. vaginalis were grown in High Iron PMD, centrifuged, resuspended No Iron PMD, incubated for 2 hr at 37° C. then diluted to 2.5×10^7 cells/mL in Low Iron PMD. Cells were grown in liquid culture for 24-48 hr then plated on agar to assess viability (expressed as colony forming units per mL (CFU)). Bulk bLF was dissolved in water and diluted in culture medium.

[1] = in vivo
Excerpt: Zinc levels in vaginal fluid of BV have also been measured. Recommended zinc levels for bacterial growth are not readily available as zinc toxicity is low and the capacity of bacteria to store zinc is high, thus contributing to a very wide range of acceptable zinc levels that will support bacterial growth. […] Furthermore, in an L. iners based microbiome that has not progressed to full blown BV, a significant increase in calprotectin is also seen. Thus, when an altered microbiome takes hold, the body appears to be an active conspirator in discouraging L. Crispatus-type re-growth.
The remainder is expelled. This means that free iron is released from a dose of bovine lactoferrin that is partially saturated with iron and may become accessible to bacteria. Even if the released iron is immediately bound by the remaining lactoferrin, this proteolysis will inevitably increase the overall saturation percentage of the remaining bovine lactoferrin. In turn, it will also increase the saturation of human lactoferrin, since bovine and human forms exist in relative equilibrium considering that their bindings constants are similar. It also follows, that lowering the initial iron saturation of bovine lactoferrin will lower human lactoferrin's iron saturation levels and thus provide the least access to the bacterial binding proteins that scavenge iron from human lactoferrin. […]

G. vag strain 14.2 = assay: antibiotic synergy testing, checkerboard cross dilution method in broth cultures; assay type: cell-based, Gardnerella vaginalis; details: 4 mg/mL bLF, 24 hr

B1: bovine lactoferrin (protein, UniProt P24627 20-708, looked up)
Lactotransferrin: APRKNVRWCTISQPEWFKCRRWQWRMKKLGAPSITCVRRAFALECIRAIAEKKADAVTLDGGMVFEAGRDPYKLRPVAAEIYGTKESPQTHYYAVAVVKKGSNFQLDQLQGRKSCHTGLGRSAGWIIPMGILRPYLSWTESLEPLQGAVAKFFSASCVPCIDRQAYPNLCQLCKGEGENQCACSSREPYFGYSGAFKCLQDGAGDVAFVKETTVFENLPEKADRDQYELLCLNNSRAPVDAFKECHLAQVPSHAVVARSVDGKEDLIWKLLSKAQEKFGKNKSRSFQLFGSPPGQRDLLFKDSALGFLRIPSKVDSALYLGSRYLTTLKNLRETAEEVKARYTRVVWCAVGPEEQKKCQQWSQQSGQNVTCATASTTDDCIVLVLKGEADALNLDGGYIYTAGKCGLVPVLAENRKSSKHSSLDCVLRPTEGYLAVAVVKKANEGLTWNSLKDKKSCHTAVDRTAGWNIPMGLIVNQTGSCAFDEFFSQSCAPGADPKSRLCALCAGDDQGLDKCVPNSKEKYYGYTGAFRCLAEDVGDVAFVKNDTVWENTNGESTADWAKNLNREDFRLLCLDGTRKPVTEAQSCHLAVAPNHAVVSRSDRAAHVKQVLLHQQALFGKNGKNCPDKFCLFKSETKNLLFNDNTECLAKLGGRPTYEEYLGTEYVTAIANLKKCSTSPLLEACAFLTR
notes: bulk bLF dissolved in water for in vitro tests
- concentration range of dose-dependent inhibition of G. vag growth (Gardnerella vaginalis; G. vag isolate 14.2, Low Iron PMD, FIG. 2): 0.5 to 32 mg/mL
- effect on G. vaginalis growth (Gardnerella vaginalis; iron-containing bovine lactoferrin preparation): growth suppression
- share of a vaginal dose broken down via vaginal or bacterial proteases [1]: ≤ 20%
- growth inhibited (G. vag strain 14.2): 19.3%
